The assay addresses T1, hTLT-1.126-162 (TLT-1 stalk peptide) (human).
T1 construct: Made by solid phase peptide synthesis; not glycosylated; also called chain P of the crystal structure
T1 peptide: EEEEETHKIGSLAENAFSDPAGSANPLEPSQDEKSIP
As to the kind of experiment: crystal structure of the Fab0100:hTLT-1.126-162 complex. An excerpt: Crystallogr. 40, 658-674) of the CCP4 suite (Bailey,S. (1994) Acta Crystallogr. Sect. D-Biol. Crystallogr. 50, 760-763). […] Additional crystallographic refinements, using the REFMAC5 software program (Murshudov, G. N. et al. Acta Crystallogr. Sect. D-Biol. Crystallogr. 53, 240-255), followed by computer graphics inspection of the electron density maps, model corrections and building, using the COOT software program (Emsley, P. et al. Acta Crystallogr. Sect. D-Biol. Crystallogr. 60, 2126-2132), were applied. The procedure was cycled until no further significant improvements could be made to the model.
The crystal was allowed to soak for about 15 seconds, then flash frozen in liquid N₂ and during data collection kept at 100 K by a cryogenic N₂ gas stream. Crystallographic data were subsequently collected to 1.85 Å resolution at beam-line BL911-3 (Ursby, T. et al. (2004) AIP Conference Proceedings 705, 1241-1246) at MAX-lab, Lund, Sweden. Space group determination, integration and scaling of the data were made in the XDS software package. Cell parameters for the synchrotron data were determined to be 82.54, 65.32, 108.05 Å, 90°, 95.15° and 90°, for a, b, c, α, β and γ, respectively, and space group was determined to be C2. Rsym for intensities of the data set was calculated to be 6.7%. […]

B1: Fab0100 (anti-TLT-1 Fab) (Fab, V domains shown)
VH: EVKLLESGGGLVQPGGSLKLSCAASGFDFSRYWMTWVRQAPGKGLEWIGEINPDSSTINYNPSLKDKFIISRDNAKNTLYLQMSEVRSEDTALYYCASGVFTSWGQGTLVTVSA
VL: DVVMTQTPLSLPVSLGDQASISCRSSQSLVHRNGNTYFHWALQKPGQSPKLLIYKVSNRFSGVPDRFSGSGSGTDFTLKISRVEAEDLGVYFCSQSTHVPYTFGGGTKLEIKR
notes: also called Fab 0061 (Fab 0012-LC.C36A; VH.T60N-CH1)
Turning to B1, the binding result is on record as “binds”.

Values taken from patent US20120178908A1 (Novo Nordisk, published 2012).
